Experimental findings from paper PMC9881219, “The NTPase activity of the double FYVE domain–containing protein 1 regulates lipid droplet metabolism” (The Journal of Biological Chemistry, 2022) are described below.

Changes are numbered by the printed parent chain. Names and notes keep the numbering of the source.

Data set [1] concerns the molecule itself. Nature of the data set: SEC; MBP-DFCP1 (112-415) constructs on HiLoad 26/600 Superdex 200 pg; 25 mM Tris pH 8.0, 150 mM NaCl, 1 mM MgCl2, 1 mM DTT; monomer and dimer peaks.
Data set [2] concerns the molecule itself. Put plainly: SEC; full-length FLAG-DFCP1 on Superose 6; 25 mM Tris pH 8, 150 mM NaCl, 1 mM DTT, 1 mM MgCl2; monomer and dimer peaks.

B1: MBP-DFCP1 (112-415), WT NTPase domain of mouse DFCP1 (domain or fragment, UniProt Q810J8 112-415, looked up)
chain: NKRRHPITVYLVSKVQESLEGEEMDEETKRKKMTERVVSFLLVDENEEIQVTNEEDFIRKLDCKPDQHLKVVSIFGNTGDGKSHTLNHTFFYGREVFKTSPAQESCTVGVWAAYDPVHKVAVIDTEGLLGATVNLSQRTRLLLKVLAISDLVIYRTHADRLHNDLFKFLGDASEAYLKHFTKELKATTARCGLDVPLSTLGPAVIIFHETVHTQLLGSDHPSEAPEKLIQDRFRKLGRFPEAFSSIHYKGTRTYNPPTDFSGLRRALEQLLENNTTRSPRHPGVIFKALKALSDRFSGEIPDDQ
notes: Mouse DFCP1, UniProt Q810J8, residues 112-415 (NTPase domain, 98.8% identical to human DFCP1), in pMal-c2e; MBP was removed with TEV protease only after the SEC step, for the nucleotide hydrolysis assays; also called WT (112-415); DFCP1 NTPase domain; source: E. coli Rosetta (DE3), purified (amylose resin, Superdex 200 SEC); not shown: MBP, N-terminal, kept
In the case of B1, in data set [1], the binding result is “binds”.

B2: MBP-DFCP1 (112-415) R266Q (domain or fragment, mouse, UniProt Q810J8 112-415, looked up)
chain: B1 chain with R155Q
notes: Mouse DFCP1, UniProt Q810J8, residues 112-415 (NTPase domain) with R266Q, in pMal-c2e; R266Q is a cancer-related mutation found in human patients (endometrial and colorectal cancers); Here it was introduced into the mouse NTPase domain by mutagenesis; also called RQ; RQm/RQd (monomeric/dimeric states); source: E. coli Rosetta (DE3), purified (amylose resin, Superdex 200 SEC); not shown: MBP, …
As to B2, in data set [1], the binding result is “binds”.

B3: MBP-DFCP1 (112-415) K193A (domain or fragment, mouse, UniProt Q810J8 112-415, looked up)
chain: B1 chain with K82A
notes: Mouse DFCP1, UniProt Q810J8, residues 112-415 (NTPase domain) with K193A, in pMal-c2e; also called KA; K193A NTPase domain; source: E. coli Rosetta (DE3), purified (amylose resin, Superdex 200 SEC); not shown: MBP, N-terminal, kept
B3: the binding result in data set [1] is reported as “binds”.

B4: MBP-DFCP1 (112-415) K193A/R266Q (domain or fragment, mouse, UniProt Q810J8 112-415, looked up)
chain: B1 chain with K82A, R155Q
notes: Mouse DFCP1, UniProt Q810J8, residues 112-415 (NTPase domain) with both K193A and R266Q, in pMal-c2e; also called KARQ; KA/RQ; source: E. coli Rosetta (DE3), purified (amylose resin, Superdex 200 SEC); not shown: MBP, N-terminal, kept
In the case of B4, the binding result in data set [1] is given as “binds”.

B5: full-length FLAG-DFCP1 (human double FYVE domain-containing protein 1) (natural protein, UniProt Q9HBF4 1-777, looked up)
chain: MSAQTSPAEKGLNPGLMCQESYACSGTDEAIFECDECCSLQCLRCEEELHRQERLRNHERIRLKPGHVPYCDLCKGLSGHLPGVRQRAIVRCQTCKINLCLECQKRTHSGGNKRRHPVTVYNVSNLQESLEAEEMDEETKRKKMTEKVVSFLLVDENEEIQVTNEEDFIRKLDCKPDQHLKVVSIFGNTGDGKSHTLNHTFFYGREVFKTSPTQESCTVGVWAAYDPVHKVAVIDTEGLLGATVNLSQRTRLLLKVLAISDLVIYRTHADRLHNDLFKFLGDASEAYLKHFTKELKATTARCGLDVPLSTLGPAVIIFHETVHTQLLGSDHPSEVPEKLIQDRFRKLGRFPEAFSSIHYKGTRTYNPPTDFSGLRRALEQLLENNTTRSPRHPGVIFKALKALSDRFSGEIPDDQMAHSSFFPDEYFTCSSLCLSCGVGCKKSMNHGKEGVPHEAKSRCRYSHQYDNRVYTCKACYERGEEVSVVPKTSASTDSPWMGLAKYAWSGYVIECPNCGVVYRSRQYWFGNQDPVDTVVRTEIVHVWPGTDGFLKDNNNAAQRLLDGMNFMAQSVSELSLGPTKAVTSWLTDQIAPAYWRPNSQILSCNKCATSFKDNDTKHHCRACGEGFCDSCSSKTRPVPERGWGPAPVRVCDNCYEARNVQLAVTEAQVDDEGGTLIARKVGEAVQNTLGAVVTAIDIPLGLVKDAARPAYWVPDHEILHCHNCRKEFSIKLSKHHCRACGQGFCDECSHDRRAVPSRGWDHPVRVCFNCNKKPGDL
notes: Human DFCP1 (ZFYVE1), UniProt Q9HBF4, full length; A TEV site lies between FLAG and DFCP1; no cleavage is described for this protein; The domain diagram gives 1-777 for the full-length protein; also called FL DFCP1; FL hsDFCP1; not shown: FLAG, N-terminal, kept
Consider B5, for which, in data set [2], the binding result is “binds”.
